{"source": "patent US20190248888A1", "about": "“METHODS OF LOWERING BLOOD GLUCOSE LEVELS” (Regeneron Pharmaceuticals, Inc., priority 2016, published 2019)", "molecules": {"B1": {"name": "α-GCGR: potent monoclonal GCGR blocking antibody, HCVR/LCVR SEQ ID NOs: 86/88 (antibody, V domains shown)", "VH": "EVQLVESGGGLVQPGGSLRLSCAASGFTFSNYLMNWVRQAPGKGLEWLANIQEDGIEKYYVDSVKGRFTISRDNAKNSLYLQMNSLRAEDTAVYYCAREPSHYDILTGYDYYYGMDVWGQGTTVTVS", "VL": "DIQMTQSPSSLSASVGDRVTITCRASQGIRNDLGWYQQKPGKAPKRLIYAASSLQSGVPSRFSGSGSGTEFILTVSSLQPEDFATYYCLQYNSNPFTFGPGTKVDIK"}}, "key": {"[1]": {"tested_on": "C57BL/6 mice", "test": "GCGR antibody with or without rapamycin in C57BL/6 mice: blood chemistry, islet cell mass", "conditions": "21 days", "quoted_text": "C57BL/6 mice (males, 10 weeks of age, Taconic) were housed (5 mice per cage) in a controlled environment (12-h light/dark cycle, 22±1° C., 60-70% humidity) and fed ad libitum with standard chow (Purina Laboratory Rodent Diet 5001, LabDiet). Mice were assigned to study groups (n=10) based on baseline blood glucose levels. Mice were injected subcutaneously (sc) with GCGR antibody (3 mg/kg) or the control antibody (3 mg/kg) alone or in combination with rapamycin (10 mg/kg) or the vehicle. For the duration of the study, GCGR or control antibody was administered once weekly, whereas rapamycin or the vehicle was administered daily. Blood was collected from the tail for glucose measurements without fasting. Plasma samples were collected via submandibular bleeds at baseline and on day 21 after dosing for analysis of hormones and total amino acid levels. Seven days after the last antibody administration (day 21), mice were sacrificed, organs weighed and pancreata collected.\nPancreas α- and β-cell mass was measured as described elsewhere (Okamato et al., 2015, Endocrinology 156:2781-2794). α- and PP cell mass were determined using anti-somatostatin antibody (Sigma-Aldrich; #SAB4502861) and anti-pancreatic polypeptide antibody (Sigma-Aldrich; #SAB2500747). For quantifying Slc38a5 positive α-cells, pancreas sections were stained with human anti-glucagon and rabbit anti-Slc38a5 (Abcam; #ab72717) primary antibodies, and Alexa Fluor 488 labeled donkey anti-rabbit (Jackson ImmunoResearch; #711-545-152) and Alexa Fluor 594 donkey anti-human (Jackson ImmunoResearch; #709-585-149) secondary antibodies. For quantifying proliferating cells, Alexa Fluor 647 labeled anti-Ki67 (Abcam; #ab194724) was used in combination with anti-glucagon and anti-Slc38a5 antibodies. Slides were scanned using a Zeiss Axio Scan.Z1 slide scanner (Zeiss) and the images were analyzed using the Halo (Indica Labs).\nBlood glucose was determined using ACCU-CHEK® Compact Plus (Roche Diagnostics). Plasma glucagon and insulin levels were determined using glucagon and mouse insulin ELISA (Mercodia). Plasma total amino acid levels were measured using L-Amino Acid Quantification Kit (Sigma-Aldrich)."}, "[2]": {"tested_on": "Slc38a5−/− mice", "test": "GCGR antibody in Slc38a5−/− mice and wildtype littermates", "format": "in vivo, mouse", "conditions": "10 mg/kg weekly, 20 days", "method": "Mice deficient in Slc38a5 (100% C57BL/6NTac) were generated by homologous recombination using Regeneron's VelociGene technology (Valenzuela et al., 2003, Nat Biotechnol 21:652-659). VelociGene allele identification number is VG15016. Both male and female mice were used for the study. […] Slc38a5^−/− mice and wildtype littermates were dosed with GCGR or control antibody (10 mg/kg; n=8) weekly for 20 days. Samples of blood and plasma as well as organ weights and pancreata were collected as outlined above."}}, "data": [{"molecule": "B1", "values": [{"measurement": "blood glucose levels", "setting": "[1]; C57BL/6 mice, 3 mg/kg weekly", "value": "reduce"}, {"measurement": "plasma amino acid levels", "setting": "[1]; GCGR antibody 3 mg/kg", "value": "significantly increased"}, {"measurement": "α-cell size", "setting": "[1]; GCGR antibody 3 mg/kg", "value": "slightly increased"}, {"measurement": "blood glucose levels in Slc38a5−/− mice compared with littermate control mice", "setting": "[2]", "value": "to the same extent"}, {"measurement": "reduction of the expansion of α-cell mass in Slc38a5−/− mice relative to treated control mice", "setting": "[2]", "value": 50, "unit": "%"}, {"measurement": "plasma insulin levels", "setting": "[2]; WT and Slc38a5−/− mice", "value": "No effects"}, {"measurement": "α-cell mass or number of islets per pancreas area (FIGS. 5H and 5I)", "setting": "[2]; WT and Slc38a5−/− mice", "value": "did not affect"}]}]}
